Measured values published in patent US20190330321A1 (UCB, published 2019).
Changes are numbered by the printed parent chain. Each block holds one binder with its values, some of them ahead of it.

Experiments:
Experiment in all cases: cell-based or functional assay
[1] = target: endogenously produced TGF-beta (isoform not given)
mature human TGF-beta 1 = mature human TGF-beta 1 (human, UniProt P01137 279-390)
mature human TGF-beta 2 = target: T1, mature human TGF-beta 2 (human, UniProt P61812 303-414)
T1 sequence: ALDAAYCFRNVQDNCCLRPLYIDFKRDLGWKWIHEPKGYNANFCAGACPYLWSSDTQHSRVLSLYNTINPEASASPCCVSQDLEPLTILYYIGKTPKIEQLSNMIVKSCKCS

mature human TGF-beta 3 = target: T2, mature human TGF-beta 3 (human, UniProt P10600 301-412)
T2 sequence: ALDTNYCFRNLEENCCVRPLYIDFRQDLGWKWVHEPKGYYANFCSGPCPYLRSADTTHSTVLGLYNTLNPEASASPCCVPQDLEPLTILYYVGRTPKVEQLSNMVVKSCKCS

mature human TGF-beta 1, sequence (P01137 279-390 limits assumed): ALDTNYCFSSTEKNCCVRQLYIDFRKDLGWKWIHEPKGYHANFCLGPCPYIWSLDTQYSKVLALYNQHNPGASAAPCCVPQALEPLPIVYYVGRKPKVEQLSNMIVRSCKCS

Geomean IC50, HEK-Blue TGF-beta reporter gene assay (mature human TGF-beta 1): 1.77 not clear (head says nM) | Geomean IC50, HEK-Blue TGF-beta reporter gene assay (mature human TGF-beta 2): 0.3 not clear (head says nM) | Geomean IC50, HEK-Blue TGF-beta reporter gene assay (mature human TGF-beta 3): 24.5 not clear (head says nM)
B5: 4856 rabbit Fab (Fab, V domains shown)
VH: QSLEESGGRLVTPGTPLTLTCTASGFSLSSYDMSWVRQAPGKGLEWIGIIYGGSGSTWYASWAKGRFTMSKTSTTVDLKITSPTTEDMATYFCARGRDGGAGGSRNGYSLWGQGTLVTVSS
VL: AYDMTQTPASVEVAVGGTVTIKCQASESIYSGLAWYQQTPGQRPKLLIYAASDLASGVPSRFKGSGSGTEYTLTISGVECADAATYYCQQTWTDGGIDNPFGGGTEVVVKR

Geomean IC50, BxPC3-HEK-Blue TGF-beta reporter gene co-culture assay [1]: 0.0037 µM
B6: 4856 rabbit Fab (Fab)
heavy: QSLEESGGRLVTPGTPLTLTCTASGFSLSSYDMSWVRQAPGKGLEWIGIIYGGSGSTWYASWAKGRFTMSKTSTTVDLKITSPTTEDMATYFCARGRDGGAGGSRNGYSLWGQGTLVTVSSGQPKAPSVFPLAPCCGDTPSSTVTLGCLVKGYLPEPVTVTWNSGTLTNGVRTFPSVRQSSGLYSLSSVVSVTSSSQPVTCNVAHPATNTKVDKTV
light: AYDMTQTPASVEVAVGGTVTIKCQASESIYSGLAWYQQTPGQRPKLLIYAASDLASGVPSRFKGSGSGTEYTLTISGVECADAATYYCQQTWTDGGIDNPFGGGTEVVVKRTPVAPTVLIFPPAADQVATGTVTIVCVANKYFPDVTVTWEVDGTTQTTGIENSKTPQNSADCTYNLSSTLTLTSTQYNSHKEYTCKVTQGTTSVVQSFNRGDC

More lines, now with the values behind:

B1: antibody 4856 gL3gH13 Fab (humanised) (Fab)
heavy: EVQLVESGGGLVKPGGSLRLSCAASGFSLSSYDMSWVRQAPGKGLEWIGIIYGGSGSTWYASWAKGRFTISRDSAKNSVYLQMNSLRAEDTAVYYCARGRDAGAGGSRNGYSLWGQGTLVTVSSASTKGPSVFPLAPSSKSTSGGTAALGCLVKDYFPEPVTVSWNSGALTSGVHTFPAVLQSSGLYSLSSVVTVPSSSLGTQTYICNVNHKPSNTKVDKKVEPKSC
light: AYDMTQSPSTLSASVGDRVTITCQASESIYSGLAWYQQKPGKAPKLLIYAASDLASGVPSRFSGSGSGTEYTLTISSLQPDDFATYYCQQTWTDGGIDNPFGGGTKVEIKRTVAAPSVFIFPPSDEQLKSGTASVVCLLNNFYPREAKVQWKVDNALQSGNSQESVTEQDSKDSTYSLSSTLTLSKADYEKHKVYACEVTHQGLSSPVTKSFNRGEC
IC50, Collagen I&III deposition, RPTEC and HRF co-culture, N = 1 [1]: 0.0224 µM | IC50, Collagen I&III deposition, RPTEC and HRF co-culture, N = 2 [1]: 0.048 µM | IC50, Collagen V deposition, RPTEC and HRF co-culture, N = 1 [1]: 0.0389 µM | IC50, Collagen V deposition, RPTEC and HRF co-culture, N = 2 [1]: 0.0816 µM | IC50, Fibronectin deposition, RPTEC and HRF co-culture, N = 1 [1]: 0.0326 µM | IC50, Fibronectin deposition, RPTEC and HRF co-culture, N = 2 [1]: 0.0271 µM | IC50 Geo Mean, Collagen I&III deposition, RPTEC and HRF co-culture [1]: 0.0328 µM | IC50 Geo Mean, Collagen V deposition, RPTEC and HRF co-culture [1]: 0.0563 µM | IC50 Geo Mean, Fibronectin deposition, RPTEC and HRF co-culture [1]: 0.0297 µM | IC50 geometric mean, BxPC3 and HEK-Blue TGF-beta co-culture assay [1]: 0.00395 µM

B2: antibody 4856 gL3gH23 Fab (humanised) (Fab)
heavy: B1 heavy with G110A
light: B1 light
IC50 geometric mean, BxPC3 and HEK-Blue TGF-beta co-culture assay [1]: 0.0091 µM

B3: antibody 4856 gL3gH29 Fab (humanised) (Fab)
heavy: B1 heavy with N109D
light: B1 light
IC50 geometric mean, BxPC3 and HEK-Blue TGF-beta co-culture assay [1]: 0.00377 µM

B4: antibody 4856 gL3gH20 Fab (humanised) (Fab)
heavy: B1 heavy with G49S, I70M, R72K
light: B1 light
IC50 geometric mean, BxPC3 and HEK-Blue TGF-beta co-culture assay [1]: 0.00463 µM
